Source: article PMC2255029, “UV-A-induced structural and functional changes in human lens deamidated αB-crystallin” (Molecular Vision, 2008)

Target: the molecule itself
Assay: cross-linking; UV-A irradiation (320-400 nm; 20 and 50 J/cm^2, about 5 °C, 50 mM phosphate buffer, pH 7.5) of the purified protein, then SDS-PAGE after treatment with 150 mM β-mercaptoethanol; 40 kDa species

Protein | stoichiometry N
wild type (WT) αB-crystallin (natural protein, human, UniProt P02511 1-175, looked up, αB-crystallin, human, 175 amino acid residues; cDNA cloned in plasmid pDIRECT; Oligomer; Also used after UV-A exposure (320-400 nm; 20 or 50 J/cm^2), which oxidises Met and/or Trp residues and partly degrades the protein; source: E. coli BL21 (DE3) pLysS, purified (DEAE-Sephacel, Butyl-Sepharose, size-exclusion HPLC)) MDIAIHHPWIRRPFFPFHSPSRLFDQFFGEHLLESDLFPTSTSLSPFYLRPPSFLRAPSWFDTGLSEMRLEKDRFSVNLDVKHFSPEELKVKVLGDVIEVHGKHEERQDEHGFISREFHRKYRIPADVDPLTITSSLSSDGVLTVNGPRKQVSGPERTIPITREEKPAVTAAPKK | 2
αB-Asn146Asp deamidated mutant protein (natural protein, human, UniProt P02511 1-175, looked up, αB-crystallin, human, 175 amino acid residues; cDNA cloned in plasmid pDIRECT; Asn146 changed to Asp by site-directed mutagenesis; Mimics deamidation of Asn146; Also used after UV-A exposure; source: E. coli BL21 (DE3) pLysS, purified (DEAE-Sephacel, Butyl-Sepharose, size-exclusion HPLC)) MDIAIHHPWIRRPFFPFHSPSRLFDQFFGEHLLESDLFPTSTSLSPFYLRPPSFLRAPSWFDTGLSEMRLEKDRFSVNLDVKHFSPEELKVKVLGDVIEVHGKHEERQDEHGFISREFHRKYRIPADVDPLTITSSLSSDGVLTVDGPRKQVSGPERTIPITREEKPAVTAAPKK | 2
αB-Asn78Asp deamidated mutant protein (natural protein, human, UniProt P02511 1-175, looked up, αB-crystallin, human, 175 amino acid residues; cDNA cloned in plasmid pDIRECT; Asn78 changed to Asp by site-directed mutagenesis; Mimics deamidation of Asn78; Also used after UV-A exposure; source: E. coli BL21 (DE3) pLysS, purified (DEAE-Sephacel, Butyl-Sepharose, size-exclusion HPLC)) MDIAIHHPWIRRPFFPFHSPSRLFDQFFGEHLLESDLFPTSTSLSPFYLRPPSFLRAPSWFDTGLSEMRLEKDRFSVDLDVKHFSPEELKVKVLGDVIEVHGKHEERQDEHGFISREFHRKYRIPADVDPLTITSSLSSDGVLTVNGPRKQVSGPERTIPITREEKPAVTAAPKK | 2
αB-Asn78/146Asp deamidated double mutant protein (natural protein, human, UniProt P02511 1-175, looked up, αB-crystallin, human, 175 amino acid residues; cDNA cloned in plasmid pDIRECT; both Asn78 and Asn146 changed to Asp by site-directed mutagenesis; Mimics deamidation of Asn78 and Asn146; Also used after UV-A exposure; source: E. coli BL21 (DE3) pLysS, purified (DEAE-Sephacel, Butyl-Sepharose, size-exclusion HPLC)) MDIAIHHPWIRRPFFPFHSPSRLFDQFFGEHLLESDLFPTSTSLSPFYLRPPSFLRAPSWFDTGLSEMRLEKDRFSVDLDVKHFSPEELKVKVLGDVIEVHGKHEERQDEHGFISREFHRKYRIPADVDPLTITSSLSSDGVLTVDGPRKQVSGPERTIPITREEKPAVTAAPKK | 2
